Paper PMC12733242, “The Functional Role of Gate Loop Residues in Arrestin Binding to GPCRs” (International Journal of Molecular Sciences, 2025)

How the values were obtained:
[1] = biological target: T1, phosphorylated light-activated bovine rhodopsin (bovine, UniProt P02699 1-348, phosphorylated by endogenous rhodopsin kinase (GRK1), on average 2.6 phosphates per rhodopsin (sites not determined; the C-terminus has seven phosphorylatable serines and threonines); regenerated …); assay: radioligand binding; direct binding assay: 1 nM [14C]leucine-labelled arrestin-1 (50 fmol) from cell-free translation incubated with 0.3 μg of P-Rh* or Rh* (7.8 pmol) in 50 mM Tris-HCl pH 7.4, 100 mM potassium acetate, 1 mM EDTA, 1 mM DTT, 5 min at 37 °C under room light; bound arrestin separated with rhodopsin-containing membranes by gel filtration on Sepharose CL-2B at 4 °C, scintillation counting; binding in …; conditions: one partner purified
T1 construct: rhodopsin, bovine, wild type, in native disk membranes; Native protein; also called P-Rh*

[2] = biological target: T2, unphosphorylated light-activated bovine rhodopsin (bovine, UniProt P02699 1-348, light-activated); assay: as above; conditions: one partner purified
T2 construct: rhodopsin, bovine, wild type, in native disk membranes; Native protein; source: purified bovine rhodopsin in native disk membranes, unphosphorylated
T2 sequence (P02699 whole entry): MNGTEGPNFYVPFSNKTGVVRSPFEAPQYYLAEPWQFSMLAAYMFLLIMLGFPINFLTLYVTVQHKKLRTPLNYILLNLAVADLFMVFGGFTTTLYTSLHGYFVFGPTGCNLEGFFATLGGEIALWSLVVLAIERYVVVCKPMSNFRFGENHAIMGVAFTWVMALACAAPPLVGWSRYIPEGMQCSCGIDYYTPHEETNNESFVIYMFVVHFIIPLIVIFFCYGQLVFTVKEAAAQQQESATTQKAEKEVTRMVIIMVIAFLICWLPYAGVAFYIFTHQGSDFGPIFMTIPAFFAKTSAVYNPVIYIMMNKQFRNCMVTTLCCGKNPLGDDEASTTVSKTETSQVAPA

T1 sequence (P02699 whole entry): as above

B1: bovine arrestin-1 with deletion of Gly292 (natural protein)
chain: MKANKPAPNHVIFKKISRDKSVTIYLGKRDYIDHVERVEPVDGVVLVDPELVKGKRVYVSLTCAFRYGQEDIDVMGLSFRRDLYFSQVQVFPPVGASGATTRLQESLIKKLGANTYPFLLTFPDYLPCSVMLQPAPQDVGKSCGVDFEIKAFATHSTDVEEDKIPKKSSVRLLIRKVQHAPRDMGPQPRAEASWQFFMSDKPLRLAVSLSKEIYYHGEPIPVTVAVTNSTEKTVKKIKVLVEQVTNVVLYSSDYYIKTVAAEEAQEKVPPNSSLTKTLTLVPLLANNRERRIALDGKIKHEDTNLASSTIIKEGIDKTVMGILVSYQIKVKLTVSGLLGELTSSEVATEVPFRLMHPQPEDPDTAKESFQDENFVFEEFARQNLKDAGEYKEEKTDQEAAMDE
modifications: [14C]leucine incorporated
notes: arrestin-1, bovine; bovine residue numbers; source: cell-free translation, radiolabelled; translation mix after centrifugation
increase of binding over WT [1]: 38%
increase of binding over WT [2]: 156%
